The numbers were not newly measured in PMC3634455, which cites them from elsewhere.

For one data set, the target named is tPA (Homo sapiens) (UniProt P00750).
Data set [1] concerns the target plasminogen (Homo sapiens) (UniProt P00747).
Chain of UniProt P00747 (P00747 20-810): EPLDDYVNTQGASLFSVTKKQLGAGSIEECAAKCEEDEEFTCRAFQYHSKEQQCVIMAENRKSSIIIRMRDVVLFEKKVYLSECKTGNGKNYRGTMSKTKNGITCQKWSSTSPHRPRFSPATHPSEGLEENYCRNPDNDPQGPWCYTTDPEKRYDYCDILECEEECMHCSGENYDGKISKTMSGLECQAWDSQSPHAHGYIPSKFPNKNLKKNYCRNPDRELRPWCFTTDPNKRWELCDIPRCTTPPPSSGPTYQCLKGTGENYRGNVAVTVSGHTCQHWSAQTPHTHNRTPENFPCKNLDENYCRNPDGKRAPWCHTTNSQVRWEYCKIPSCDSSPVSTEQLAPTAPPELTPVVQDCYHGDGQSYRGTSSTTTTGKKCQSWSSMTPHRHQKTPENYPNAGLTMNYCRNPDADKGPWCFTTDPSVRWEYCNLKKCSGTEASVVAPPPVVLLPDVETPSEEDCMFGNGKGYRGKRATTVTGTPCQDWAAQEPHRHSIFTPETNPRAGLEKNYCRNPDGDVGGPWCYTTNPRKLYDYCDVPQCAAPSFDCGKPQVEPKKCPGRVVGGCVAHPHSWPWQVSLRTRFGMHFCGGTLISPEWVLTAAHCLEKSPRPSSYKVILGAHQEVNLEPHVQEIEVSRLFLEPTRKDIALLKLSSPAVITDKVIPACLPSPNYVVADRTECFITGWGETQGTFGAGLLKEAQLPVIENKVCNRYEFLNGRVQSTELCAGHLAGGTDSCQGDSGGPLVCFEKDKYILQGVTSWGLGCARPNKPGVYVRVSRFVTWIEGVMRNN

Chain of UniProt P00750 (P00750 36-562): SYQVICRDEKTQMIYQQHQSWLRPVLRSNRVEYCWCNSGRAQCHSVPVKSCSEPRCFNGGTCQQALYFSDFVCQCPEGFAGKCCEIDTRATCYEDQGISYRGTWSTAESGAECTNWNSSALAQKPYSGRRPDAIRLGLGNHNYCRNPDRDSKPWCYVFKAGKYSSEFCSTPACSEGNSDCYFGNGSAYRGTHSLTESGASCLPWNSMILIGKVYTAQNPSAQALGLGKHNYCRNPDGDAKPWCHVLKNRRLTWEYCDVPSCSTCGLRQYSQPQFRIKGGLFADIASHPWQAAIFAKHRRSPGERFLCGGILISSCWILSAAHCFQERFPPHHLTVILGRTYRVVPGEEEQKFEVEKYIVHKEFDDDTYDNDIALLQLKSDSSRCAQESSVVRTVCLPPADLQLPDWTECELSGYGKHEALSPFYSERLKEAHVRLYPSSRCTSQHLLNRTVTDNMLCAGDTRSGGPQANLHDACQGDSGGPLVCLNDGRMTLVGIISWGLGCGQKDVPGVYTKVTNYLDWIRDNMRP

“S100A10 (annexin A2 heterotetramer) (from UniProt P60903)”: the values for the dissociation constant (Kd) (in the data set with tPA (Homo sapiens); in data set [1]) were 680 nM and 110 nM, respectively.
